Measured values as given in patent US20110256122A1 (published 2011).

Molecular target: T1, recombinant human TNF R1/TNFRSF1A/Fc chimera (R+D Systems) (human, UniProt P19438 30-211)
T1 construct: Bought chimera; also called TNF-αR1; TNFR1 Fc; Fc part of the bought chimera not given
T1 sequence (looked up): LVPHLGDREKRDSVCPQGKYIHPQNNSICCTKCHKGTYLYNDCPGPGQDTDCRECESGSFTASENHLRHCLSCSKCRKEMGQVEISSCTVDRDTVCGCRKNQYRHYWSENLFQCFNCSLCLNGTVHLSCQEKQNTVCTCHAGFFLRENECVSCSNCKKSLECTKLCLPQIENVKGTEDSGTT
Assay: sandwich ELISA, TNF R1 Fc chimera coated on the plate, anti-human IgG F(ab)2 then anti-goat/sheep-HRP detection

binding result: binds
B1: Dom 1h-131-206 (other)
chain: EVQLLESGGGLVQPGGSLRLSCAASGFTFAHETMVWVRQAPGKGLEWVSHIPPDGQDPFYADSVKGRFTISRDNSKNTLYLQMNSLRAEDTAVYHCALLPKRGPWFDYWGQGTLVTVSS
notes: Immunoglobulin single variable domain (dAb) with specificity for TNF-αR1; also called α-TNF-αR1 dAb; anti TNF alpha R1 dAb
